Data published in patent US20190194350A1.

Legend:
[1] = molecular target: His-tagged extracellular domain of EGFR (aa 20-643) (UniProt P00533); assay: ELISA, coated EGFR-His, detection with HRP anti-human Fc antibody; the legend paragraph 41 and paragraph 295 name Cetuximab as this control, the sheet prints hu225-IgG [panel EGFR-His]
[2] = molecular target: His-tagged extracellular domain of EGFR (aa 20-643) (UniProt P00533); assay: ELISA, coated EGFR-His

EC50 (read off the curve) [1]: 0.2 nM
EC50 [2]: 0.2 nM
B1: hu225-IgG (antibody, V domains shown)
VH: EVQLVESGGGLVQPGGSLRLSCAASGFSLTNYGVHWVRQAPGKGLEWLGVIWSGGNTDYNTPFTSRFTISRDNSKNTLYLQMNSLRAEDTAVYYCARALTYYDYEFAYWGQGTTVTVSS
VL: DIQLTQSPSFLSASVGDRVTITCRASQSIGTNIHWYQQKPGKAPKLLIKYASESISGVPSRFSGSGSGTEFTLTISSLQPEDFATYYCQQNNNWPTTFGAGTKLEIK
